Data taken from patent publication US20100310509A1 (published 2010).

T1: soluble gp130 (R&D Systems # 228-GP-050/CF) (UniProt P40189 23-619, limits assumed)
T1 construct: extracellular domain; Bought
T1 sequence (looked up): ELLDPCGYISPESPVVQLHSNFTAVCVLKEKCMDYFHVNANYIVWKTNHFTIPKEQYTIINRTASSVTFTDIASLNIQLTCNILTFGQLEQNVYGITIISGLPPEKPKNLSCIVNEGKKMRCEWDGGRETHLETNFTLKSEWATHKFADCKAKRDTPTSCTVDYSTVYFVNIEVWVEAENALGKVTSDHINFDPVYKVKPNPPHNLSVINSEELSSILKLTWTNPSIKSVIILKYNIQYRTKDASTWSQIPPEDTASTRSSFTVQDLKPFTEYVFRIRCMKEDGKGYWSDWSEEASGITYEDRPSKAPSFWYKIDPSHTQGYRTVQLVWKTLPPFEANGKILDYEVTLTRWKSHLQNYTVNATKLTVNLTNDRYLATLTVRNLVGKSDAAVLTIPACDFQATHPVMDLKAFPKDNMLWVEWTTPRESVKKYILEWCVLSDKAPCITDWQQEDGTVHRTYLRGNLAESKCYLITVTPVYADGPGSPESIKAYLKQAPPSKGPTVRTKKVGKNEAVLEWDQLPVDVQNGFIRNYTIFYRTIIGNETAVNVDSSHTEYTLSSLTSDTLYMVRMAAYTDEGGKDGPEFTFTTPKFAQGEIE

T2: soluble human LIFR (leukemia inhibitory factor receptor) (human, UniProt P42702 45-833)
T2 construct: extracellular domain; Bought; also called soluble LIFR
T2 sequence (looked up): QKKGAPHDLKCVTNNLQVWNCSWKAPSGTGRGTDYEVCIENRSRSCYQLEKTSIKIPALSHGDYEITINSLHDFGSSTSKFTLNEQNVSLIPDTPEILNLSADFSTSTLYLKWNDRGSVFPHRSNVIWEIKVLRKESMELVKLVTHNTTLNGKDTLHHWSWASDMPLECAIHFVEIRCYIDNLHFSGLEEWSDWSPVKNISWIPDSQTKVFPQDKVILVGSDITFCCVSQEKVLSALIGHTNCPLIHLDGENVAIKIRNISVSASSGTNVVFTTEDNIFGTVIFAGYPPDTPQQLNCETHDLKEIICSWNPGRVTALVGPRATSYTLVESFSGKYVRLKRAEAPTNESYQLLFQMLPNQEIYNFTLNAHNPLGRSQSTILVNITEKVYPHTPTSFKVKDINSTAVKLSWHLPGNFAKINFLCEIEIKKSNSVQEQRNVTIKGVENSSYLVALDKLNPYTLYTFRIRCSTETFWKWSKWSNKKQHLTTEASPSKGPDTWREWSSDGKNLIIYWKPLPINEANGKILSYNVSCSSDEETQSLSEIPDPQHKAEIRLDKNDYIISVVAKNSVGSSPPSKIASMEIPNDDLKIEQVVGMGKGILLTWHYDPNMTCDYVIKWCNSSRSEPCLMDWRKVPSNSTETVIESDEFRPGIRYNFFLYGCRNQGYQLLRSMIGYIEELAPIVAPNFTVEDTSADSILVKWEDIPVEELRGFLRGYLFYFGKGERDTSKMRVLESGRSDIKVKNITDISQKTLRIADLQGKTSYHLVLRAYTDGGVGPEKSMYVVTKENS


Legend:
[1] = target: T1, soluble gp130 (R&D Systems # …); test: SPR (SensiQ), cytokine immobilised, soluble gp130 as analyte, 1:1 model
Procedure: (§1) Surface Plasmon Resonance (SPR): Kinetic parameters of the interactions between receptor domains and the cytokines LIF, OSM-WT, OSM-M1 or OSM-M2 were analyzed by SPR using the SENSIQ® system (ICX Technologies, Oklahoma City, Okla.) as described by the manufacturer protocol. Briefly, a carboxyl sensor with two channels was installed in SENSIQ® and allowed to thermally equilibrate for about 15 minutes. The channels were initially cleaned with a 3 minute injection of 0.1 M HCl. An activation solution of 2 mM 1-Ethyl-3-[3-dimethylaminopropyl]carbodiimide hydrochloride (EDC) and 0.5 mM N-hydroxysulfo succinimide (NHS) was prepared in deionized water immediately before injection. Activation solution was injected over both channels for approximately 3 minutes followed by a 10 minute injection of 50 μg/mL cytokine (LIF, OSM-WT, OSM-M1 or OSM-M2) in 10 mM acetate buffer, pH 5.0, over channel 1. […] Unreacted NHS esters were capped with a 3 minute injection of 1 M ethanolamine, pH 8.0, over both channels. […] A concentration series of soluble LIFR (# 249-LR-050/CF, R&D Systems, Minneapolis, Minn.), soluble OSMR (# 4389-OR-50, R&D Systems, Minneapolis, Minn.) or soluble gp130 (# 228-GP-050/CF, R&D Systems, Minneapolis, Minn.) in running buffer (10 mM HEPES pH 7.4, 150 mM NaCl, 3.4 mM EDTA, 0.005% Tween-20) were injected over both channels at a flow rate of 25 μl/min. Following a dissociation period of 3 minutes, the surfaces were regenerated by injecting 10 mM NaOH for 30 seconds. Rate constants for association (kₐ) and dissociation (kd) rates were derived by global analysis of the response curves fit to a 1:1 kinetic model (Equations 1 and 2) using QDat software (BioLogic Software, Ltd. Knoxville Tenn. and Nomadics, Inc. Stillwater, Okla.) using 1:1 stoichiometry.
(§2) Reducing the size of the BC loop improves OSM's affinity towards LIFR and OSMR. […] To directly measure the binding kinetics of these ligand-receptor interactions, surface plasmon resonance (SPR) was used.

[2] = target: T2, soluble human LIFR (leukemia inhibitory …); test: SPR (SensiQ), cytokine immobilised, soluble LIFR as analyte, 1:1 model
Procedure: as §1, §2

Kd [1]	koff [1]	kon [1]	Kd [2]	koff [2]	kon [2]	Binder
22.7 nM	0.0047 s⁻¹	207000 M⁻¹ s⁻¹	43.8 nM	0.004 s⁻¹	91000 M⁻¹ s⁻¹	OSM-WT ('AGA' modified human Oncostatin M, referred to as wild-type OSM) (ligand, also called hOSM with AGA modification; not shown: N-terminal FLAG tag left after thrombin removal of GST) AAIGSCSKEYRVLLGQLQKQTDLMQDTSRLLDPYIRIQGLDVPKLREHCRERPGAFPSEETLRGLGRRGFLQTLNATLGCVLHRLADLEQRLPKAQDLERSGLNIEDLEKLQMARPNILGLRNNIYCMAQLLDNSDTAEPTKAGAGASQPPTPTPASDAFQRKLEGCRFLHGYHRFMHSVGRVFSKWGESPN
21.5 nM	0.00487 s⁻¹	227000 M⁻¹ s⁻¹	2.74 nM	0.00356 s⁻¹	1.3e+06 M⁻¹ s⁻¹	OSM-M2 (OSM with BC loop truncated from 12 to 4 amino acids) (ligand, Made from the 'AGA' modified OSM template; lacks the thrombin site; not shown: N-terminal FLAG tag left after thrombin removal of GST) AAIGSCSKEYRVLLGQLQKQTDLMQDTSRLLDPYIRIQGLDVPKLREHCRERPGAFPSEETLRGLGRRGFLQTLNATLGCVLHRLADLEQRLGGGNIEDLEKLQMARPNILGLRNNIYCMAQLLDNSDTAEPTKAGAGASQPPTPTPASDAFQRKLEGCRFLHGYHRFMHSVGRVFSKWGESPN
72.4 nM	0.00533 s⁻¹	74000 M⁻¹ s⁻¹	3.1 nM	0.0023 s⁻¹	740000 M⁻¹ s⁻¹	human leukemia inhibitory factor (LIF) (ligand, Purified recombinant protein; also called hLIF) not shown
26.3 nM	0.00534 s⁻¹	203000 M⁻¹ s⁻¹	7.62 nM	0.00252 s⁻¹	331000 M⁻¹ s⁻¹	OSM-M1 (OSM with BC loop truncated from 12 to 7 amino acids) (ligand, Made from the 'AGA' modified OSM template; lacks the thrombin site; not shown: N-terminal FLAG tag left after thrombin removal of GST) AAIGSCSKEYRVLLGQLQKQTDLMQDTSRLLDPYIRIQGLDVPKLREHCRERPGAFPSEETLRGLGRRGFLQTLNATLGCVLHRLADLEQRLGAPSGLNIEDLEKLQMARPNILGLRNNIYCMAQLLDNSDTAEPTKAGAGASQPPTPTPASDAFQRKLEGCRFLHGYHRFMHSVGRVFSKWGESPN
